According to patent publication US20060286609A1 (BIOCHECK, published 2006):

What was measured:
Mouse Id4: Histidine = target: T1, Mouse Id4: Histidine (mouse, UniProt P41139 1-161, limits assumed); test: ELISA, coated antigen; relative to human Id1
T1 construct: E. coli fusion protein (vector pGW07); also called m-Id4: His; not shown: His-tag
T1 sequence (looked up): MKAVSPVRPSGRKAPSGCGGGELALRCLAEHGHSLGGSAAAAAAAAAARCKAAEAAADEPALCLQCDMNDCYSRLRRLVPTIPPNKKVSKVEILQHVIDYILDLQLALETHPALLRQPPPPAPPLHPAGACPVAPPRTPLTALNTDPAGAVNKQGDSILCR

Mouse Id1: Histidine [1] = target: T2, Mouse Id1: Histidine (mouse, UniProt P20067-2 1-148); test: ELISA, coated antigen; relative to human Id1
T2 construct: E. coli fusion protein (vector pGW07); also called m-Id1-His; not shown: His-tag
T2 sequence: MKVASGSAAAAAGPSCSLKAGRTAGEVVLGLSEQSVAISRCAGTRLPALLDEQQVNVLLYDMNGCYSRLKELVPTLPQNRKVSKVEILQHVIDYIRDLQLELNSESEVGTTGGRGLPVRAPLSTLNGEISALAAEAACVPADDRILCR

Mouse Id2: Histidine = target: T3, Mouse Id2: Histidine (mouse, UniProt P41136 1-134, limits assumed); test: ELISA, coated antigen; relative to human Id1
T3 construct: E. coli fusion protein (vector pGW07); also called m-Id2: His; not shown: His-tag
T3 sequence (looked up): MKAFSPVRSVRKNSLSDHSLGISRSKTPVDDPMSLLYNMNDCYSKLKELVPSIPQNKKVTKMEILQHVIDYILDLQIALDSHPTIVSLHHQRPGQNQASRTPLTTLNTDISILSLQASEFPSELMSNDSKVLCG

Human Id2: Histidine [2] = target: T4, Human Id2: Histidine (human, UniProt Q02363 1-134, limits assumed); test: ELISA, coated antigen; relative to human Id1
T4 construct: E. coli fusion protein (vector pGW07); also called h-Id2: His; not shown: His-tag
T4 sequence (looked up): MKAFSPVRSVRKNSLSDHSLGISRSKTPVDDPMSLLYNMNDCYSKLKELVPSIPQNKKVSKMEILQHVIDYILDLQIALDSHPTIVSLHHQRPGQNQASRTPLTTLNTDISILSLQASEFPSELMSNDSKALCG

Mouse Id3: Histidine = target: T5, Mouse Id3: Histidine (mouse, UniProt P41133 1-119, limits assumed); test: ELISA, coated antigen; relative to human Id1
T5 construct: E. coli fusion protein (vector pGW07); also called m-Id3: His; not shown: His-tag
T5 sequence (looked up): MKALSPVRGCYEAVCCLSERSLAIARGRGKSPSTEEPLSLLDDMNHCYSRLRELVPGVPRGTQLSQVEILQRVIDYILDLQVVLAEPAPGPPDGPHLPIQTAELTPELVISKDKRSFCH

Human Id3: Histidine [3] = target: T6, Human Id3: Histidine (human, UniProt Q02535 1-119, limits assumed); test: ELISA, coated antigen; relative to human Id1
T6 construct: E. coli fusion protein (vector pGW07); also called h-Id3: His; not shown: His-tag
T6 sequence (looked up): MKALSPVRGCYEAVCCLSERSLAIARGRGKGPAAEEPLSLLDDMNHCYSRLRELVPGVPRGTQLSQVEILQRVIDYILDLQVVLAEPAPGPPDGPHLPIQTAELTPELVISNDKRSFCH

[4] = target: Human Id1: Histidine (human) (UniProt P41134); test: sandwich ELISA, 5-3-coated wells, human Id1:His 0 ng/ml (blank), detected with rabbit polyclonal B-5133-HRP
Sequence of Human Id1: Histidine (human) (P41134 whole entry): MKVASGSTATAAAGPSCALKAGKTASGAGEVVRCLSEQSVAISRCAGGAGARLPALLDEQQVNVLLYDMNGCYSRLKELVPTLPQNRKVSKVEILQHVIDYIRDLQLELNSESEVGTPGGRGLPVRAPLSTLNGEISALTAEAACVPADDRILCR

[5] = target: Human Id1: Histidine (human) (UniProt P41134); test: ELISA, coated antigen, Ab 0.25 ug/ml
[6] = target: Human Id1: Histidine (human) (UniProt P41134); test: ELISA, coated antigen, Ab 0 ug/ml (blank)
[7] = target: T7, glutathione S-transferase (GST) (UniProt P08515 1-218 = GST); test: ELISA, coated antigen, Ab 2.50 ug/ml
T7 construct: Coated on wells as control for the fusion partner of the immunogen
T7 sequence (P08515 whole entry, the tested form may be a part): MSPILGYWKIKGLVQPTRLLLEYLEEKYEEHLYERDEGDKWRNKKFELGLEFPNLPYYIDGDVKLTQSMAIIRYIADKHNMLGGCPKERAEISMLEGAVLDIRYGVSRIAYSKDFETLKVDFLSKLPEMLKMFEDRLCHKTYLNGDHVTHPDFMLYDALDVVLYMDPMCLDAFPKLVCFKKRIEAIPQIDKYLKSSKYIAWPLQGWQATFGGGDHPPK
Procedure: (§1) Incubate plates at 2-8° C. overnight (16-24 hours). [0145] 11. Shake off the BSA solution. [0146] 12. Dispense 250 μL of 2.5% sucrose solution into each well. [0147] 13. Incubate plates at 2-8° C. for 4 hours. [0148] 14. Shake off sucrose solution. [0149] 15. Dry in vacuum at room temperature overnight. Screening Method [0150] 1. Dispense 100 μL of antibody diluent, diluted rabbit polyclonal anti-Id1 into appropriate wells. […] 2. Incubate at room temperature with mechanical shaking at 750 rpm for 90 minutes. [0152] 3. Remove the incubation mixture by flicking plate content into an appropriate waste container, followed by rinsing the wells 5 times with distilled water. […] 4. Strike the wells sharply onto absorbent paper or paper towels to remove all residual water droplets. [0154] 5. Dispense 100 μL of Goat Anti-Rabbit IgG-HRP Conjugate Reagent into each well. Gently mix for 5 seconds. [0155] 6. Incubate at room temperature with mechanical shaking at 750 rpm for 90 minutes. […] 7. Repeat procedures 3 and 4. [0157] 8. Dispense 100 μL of TMB Reagent into each well. Gently mix for 5 seconds. [0158] 9. Incubate at room temperature with mechanical shaking at 750 rpm for 20 minutes. [0159] 10. Add 100 μL of Stop Solution (1N HCl) into each well. [0160] 11. Gently mix for 10 seconds to ensure a complete mixing. […] 12. Read optical density (absorbance) at 450 nm. Results from this assay were used to select the rabbit sera with the highest antibodies titer that selectively reacts with mouse Id1 or human Id1 or both.
(§2) A comparison was carried out between the reactivity of the rabbit monoclonal anti-mouse Id1, clone #BCH-1/#37-2, of this invention and the mouse monoclonal anti-mouse/human Id1 from BD Pharmingen with the following antigens prepared in Example 5: mouse Id1:His, human Id1:His, human Id2:His, human Id3:His, and GST. These antigens and protein were used to coat the wells.
(§3) Materials and methods were those described in Example 9 except (a) Pharmingen's mouse monoclonal anti-mouse Id1 was used in addition to the rabbit monoclonal anti-mouse Id1 (Example 10), and (b) goat anti-mouse IgG-HRP conjugate was used to process the wells treated with the Pharmingen monoclonal antibody and polyclonal goat anti-rabbit IgG-HRP conjugate was used to process wells treated with rabbit monoclonal anti-mouse Id1.

Mouse Id1: Histidine [8] = target: T2, Mouse Id1: Histidine; test: ELISA, coated antigen, Ab 2.50 ug/ml
Procedure: as §1, §2, §3

Human Id2: Histidine [9] = target: T4, Human Id2: Histidine; test: ELISA, coated antigen, Ab 2.50 ug/ml
Procedure: as §1, §2, §3

Human Id3: Histidine [10] = target: T6, Human Id3: Histidine; test: ELISA, coated antigen, Ab 2.50 ug/ml
Procedure: as §1, §2, §3

Molecule: rabbit monoclonal anti-human Id1, clone #BCH-2/#5-3 (antibody)
- Cross-reactivity (%) (Mouse Id4: Histidine): < 1%
- Cross-reactivity (%) (Mouse Id1: Histidine [1]): < 1%
- Cross-reactivity (%) (Mouse Id2: Histidine): < 1%
- Cross-reactivity (%) (Human Id2: Histidine [2]): < 1%
- Cross-reactivity (%) (Mouse Id3: Histidine): < 1%
- Cross-reactivity (%) (Human Id3: Histidine [3]): < 1%
- A450 [4]: 0.046 A450

B1: rabbit monoclonal anti-mouse Id1, clone #BCH-1/#37-2 (antibody, V domains shown)
VH: QSVEESGGRLVTPGTPLTLTCKVSGFDINSYAMDWFRQAPGKGLEWIGMMSTRGNTYYTSWAKGRFTISKTSSTTVDLKMTSLTTEDTATYFCARGGLWGPGTLVTVSS
VL: RVLTQTASPVSAAVGGTVTINCQASQSVYNGNRLGWYQLKPGQSPKELIHDASTLASGVPSRFRGSGSGTQFTLTINDVQCDDAATYYCVGSYACSTGDCNVFGGGTEVVVK
notes: Rabbit IgG from hybridoma, Protein G purified; also called m Id1 MoAb 37-2; Rabbit Monoclonal Anti-Mouse Id1 (#37-2)
- A450 [5]: 0.07 A450
- A450 [6]: 0.047 A450
- A450 [7]: 0.068 A450
- A450 (Mouse Id1: Histidine [8]): 3.16 A450
- A450 (Human Id2: Histidine [9]): 0.07 A450
- A450 (Human Id3: Histidine [10]): 0.069 A450
